Reference: PMC6974733, “Rap1‐mediated nucleosome displacement can regulate gene expression in senescent cells without impacting the pace of senescence”

Assays:
[1] = biological target: histone H3/H4 tetramers, P61830;P02309; test: GST pull-down, H3 immunoblot quantitation; conditions: chain shown with the change, read off a plot; for ratio to parent: 0.5 μM GST-SANT, 0.5 μM histones, 400 mM NaCl, N = 2, parent: est. 1.0; for response: 2 μM Rap1 truncated constructs, 2 μM H3/H4, 400 mM NaCl, N = 3, scale: relative H3 signal
[2] = biological target: T1, Rap1 (Saccharomyces cerevisiae? (budding …, UniProt P11938 1-827)); test: EMSA; 0.5-100 nM protein; lower affinity than Rap1SHY; 20 mM Hepes-KOH pH 8, 100 mM KCl, 10 ug/ml BSA, 1 mM EDTA, 2 mM MgCl2, 5% glycerol, 30 min at room temperature; 0.5 nM 32P duplex; 6% gel run at 4 C; concentrations of active protein (~85% active); conditions: protein: recombinant; tags: N-terminal GST, C-terminal 6xHis (Ni-NTA and GST resin purified); label: 32P 5' end label on one strand (PNK); blunt
T1 sequence: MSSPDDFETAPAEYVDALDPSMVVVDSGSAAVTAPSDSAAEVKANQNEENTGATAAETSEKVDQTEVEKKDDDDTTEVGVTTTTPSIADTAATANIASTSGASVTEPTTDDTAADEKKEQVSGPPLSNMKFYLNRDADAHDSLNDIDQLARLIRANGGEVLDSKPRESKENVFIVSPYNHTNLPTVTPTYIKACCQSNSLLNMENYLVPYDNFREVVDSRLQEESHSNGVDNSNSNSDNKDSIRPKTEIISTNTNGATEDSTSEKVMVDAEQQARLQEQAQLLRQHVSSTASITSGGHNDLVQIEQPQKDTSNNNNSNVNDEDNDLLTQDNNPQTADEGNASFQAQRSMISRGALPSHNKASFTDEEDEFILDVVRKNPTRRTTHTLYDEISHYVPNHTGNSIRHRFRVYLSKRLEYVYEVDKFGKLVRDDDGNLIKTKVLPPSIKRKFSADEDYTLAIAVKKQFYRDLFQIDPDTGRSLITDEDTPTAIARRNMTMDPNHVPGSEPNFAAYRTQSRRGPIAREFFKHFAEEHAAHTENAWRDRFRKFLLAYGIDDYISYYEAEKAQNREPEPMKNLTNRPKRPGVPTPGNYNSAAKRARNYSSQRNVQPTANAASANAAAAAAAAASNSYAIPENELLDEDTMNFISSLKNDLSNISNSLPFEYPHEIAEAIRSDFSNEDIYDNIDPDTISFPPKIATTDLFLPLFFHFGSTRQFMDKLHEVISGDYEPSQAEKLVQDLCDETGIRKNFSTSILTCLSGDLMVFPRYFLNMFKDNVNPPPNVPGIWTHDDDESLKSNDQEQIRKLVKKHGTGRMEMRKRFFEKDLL

[3] = biological target: T2, Rap1SHY (Saccharomyces cerevisiae? (budding …, UniProt P11938 1-827, S392A;H393A;Y394A)); test: EMSA; 0.5-100 nM protein; higher affinity than Rap1; 20 mM Hepes-KOH pH 8, 100 mM KCl, 10 ug/ml BSA, 1 mM EDTA, 2 mM MgCl2, 5% glycerol, 30 min at room temperature; 0.5 nM 32P duplex; 6% gel run at 4 C; concentrations of active protein (~85% active); conditions: protein: recombinant; tags: N-terminal GST, C-terminal 6xHis (pGST-RAP1 SHY-6xHis); label: 32P 5' end label on one strand (PNK); blunt
T2 sequence: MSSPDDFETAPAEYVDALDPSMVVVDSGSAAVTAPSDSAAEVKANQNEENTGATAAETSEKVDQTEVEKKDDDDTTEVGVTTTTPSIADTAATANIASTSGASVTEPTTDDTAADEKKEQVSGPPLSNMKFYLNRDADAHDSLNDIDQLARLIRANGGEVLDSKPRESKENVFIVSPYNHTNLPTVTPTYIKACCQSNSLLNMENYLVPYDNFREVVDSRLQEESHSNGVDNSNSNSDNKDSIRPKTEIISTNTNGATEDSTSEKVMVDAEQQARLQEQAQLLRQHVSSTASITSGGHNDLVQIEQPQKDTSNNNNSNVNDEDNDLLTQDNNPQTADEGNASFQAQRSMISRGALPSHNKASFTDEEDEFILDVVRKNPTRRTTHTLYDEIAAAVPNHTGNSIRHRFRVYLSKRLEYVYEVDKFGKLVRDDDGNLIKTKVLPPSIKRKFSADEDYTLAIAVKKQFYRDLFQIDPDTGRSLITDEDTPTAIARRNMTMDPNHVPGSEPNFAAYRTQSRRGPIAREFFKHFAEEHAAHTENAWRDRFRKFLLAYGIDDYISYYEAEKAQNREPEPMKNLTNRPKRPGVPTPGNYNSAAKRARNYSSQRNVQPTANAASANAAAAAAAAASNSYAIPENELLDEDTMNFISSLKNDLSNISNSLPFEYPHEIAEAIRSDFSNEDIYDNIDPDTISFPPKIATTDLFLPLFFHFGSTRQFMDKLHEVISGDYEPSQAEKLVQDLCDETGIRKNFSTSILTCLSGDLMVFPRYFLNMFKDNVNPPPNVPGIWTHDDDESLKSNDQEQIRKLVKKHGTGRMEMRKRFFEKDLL

[4] = biological target: T2, Rap1SHY; test: EMSA; 5-50 nM protein; affinity similar to Rap1; 20 mM Hepes-KOH pH 8, 100 mM KCl, 10 ug/ml BSA, 1 mM EDTA, 2 mM MgCl2, 5% glycerol, 30 min at room temperature; 0.5 nM 32P duplex; 6% gel run at 4 C; concentrations of active protein (~85% active); conditions: protein: recombinant; tags: N-terminal GST, C-terminal 6xHis (pGST-RAP1 SHY-6xHis); label: 32P 5' end label on one strand (PNK); blunt
[5] = biological target: T1, Rap1; test: EMSA; 5-50 nM protein; affinity similar to Rap1SHY; 20 mM Hepes-KOH pH 8, 100 mM KCl, 10 ug/ml BSA, 1 mM EDTA, 2 mM MgCl2, 5% glycerol, 30 min at room temperature; 0.5 nM 32P duplex; 6% gel run at 4 C; concentrations of active protein (~85% active); conditions: protein: recombinant; tags: N-terminal GST, C-terminal 6xHis (Ni-NTA and GST resin purified); label: 32P 5' end label on one strand (PNK); blunt
[6] = biological target: T2, Rap1SHY; test: EMSA; 5-500 nM protein; affinity similar to Rap1; 20 mM Hepes-KOH pH 8, 100 mM KCl, 10 ug/ml BSA, 1 mM EDTA, 2 mM MgCl2, 5% glycerol, 30 min at room temperature; 0.5 nM 32P duplex; 6% gel run at 4 C; concentrations of active protein (~85% active); conditions: protein: recombinant; tags: N-terminal GST, C-terminal 6xHis (pGST-RAP1 SHY-6xHis); label: 32P 5' end label on one strand (PNK); blunt
[7] = biological target: T1, Rap1; test: EMSA; 5-500 nM protein; affinity similar to Rap1SHY; 20 mM Hepes-KOH pH 8, 100 mM KCl, 10 ug/ml BSA, 1 mM EDTA, 2 mM MgCl2, 5% glycerol, 30 min at room temperature; 0.5 nM 32P duplex; 6% gel run at 4 C; concentrations of active protein (~85% active); conditions: protein: recombinant; tags: N-terminal GST, C-terminal 6xHis (Ni-NTA and GST resin purified); label: 32P 5' end label on one strand (PNK); blunt

B1: GST-SANT, P11938 D389A; E390A; I391A (protein)
chain: KASFTDEEDEFILDVVRKNPTRRTTHTLYAAASHYVPNHTGNSIRHRFRVY
[1]
  ratio to parent: 0.82

B2: GST-SANT, P11938 N401A; S402A; I403A (protein)
chain: KASFTDEEDEFILDVVRKNPTRRTTHTLYDEISHYVPNHTGAAARHRFRVY
[1]
  ratio to parent: 0.97

B3: GST-Rap1^643Δ S392A; H393A; Y394A (protein)
chain: MSSPDDFETAPAEYVDALDPSMVVVDSGSAAVTAPSDSAAEVKANQNEENTGATAAETSEKVDQTEVEKKDDDDTTEVGVTTTTPSIADTAATANIASTSGASVTEPTTDDTAADEKKEQVSGPPLSNMKFYLNRDADAHDSLNDIDQLARLIRANGGEVLDSKPRESKENVFIVSPYNHTNLPTVTPTYIKACCQSNSLLNMENYLVPYDNFREVVDSRLQEESHSNGVDNSNSNSDNKDSIRPKTEIISTNTNGATEDSTSEKVMVDAEQQARLQEQAQLLRQHVSSTASITSGGHNDLVQIEQPQKDTSNNNNSNVNDEDNDLLTQDNNPQTADEGNASFQAQRSMISRGALPSHNKASFTDEEDEFILDVVRKNPTRRTTHTLYDEIAAAVPNHTGNSIRHRFRVYLSKRLEYVYEVDKFGKLVRDDDGNLIKTKVLPPSIKRKFSADEDYTLAIAVKKQFYRDLFQIDPDTGRSLITDEDTPTAIARRNMTMDPNHVPGSEPNFAAYRTQSRRGPIAREFFKHFAEEHAAHTENAWRDRFRKFLLAYGIDDYISYYEAEKAQNREPEPMKNLTNRPKRPGVPTPGNYNSAAKRARNYSSQRNVQPTANAASANAAAAAAAAASNSYAIPENELLDEDT
[1]; parent: est. 1.3
  response: 0.71

B4: GST-Rap1^CΔ, P11938 S392A; H393A; Y394A (protein)
chain: MSSPDDFETAPAEYVDALDPSMVVVDSGSAAVTAPSDSAAEVKANQNEENTGATAAETSEKVDQTEVEKKDDDDTTEVGVTTTTPSIADTAATANIASTSGASVTEPTTDDTAADEKKEQVSGPPLSNMKFYLNRDADAHDSLNDIDQLARLIRANGGEVLDSKPRESKENVFIVSPYNHTNLPTVTPTYIKACCQSNSLLNMENYLVPYDNFREVVDSRLQEESHSNGVDNSNSNSDNKDSIRPKTEIISTNTNGATEDSTSEKVMVDAEQQARLQEQAQLLRQHVSSTASITSGGHNDLVQIEQPQKDTSNNNNSNVNDEDNDLLTQDNNPQTADEGNASFQAQRSMISRGALPSHNKASFTDEEDEFILDVVRKNPTRRTTHTLYDEIAAAVPNHTGNSIRHRFRVYLSKRLEYVYEVDKFGKLVRDDDGNLIKTKVLPPSIKRKFSADEDYTLAIAVKKQFYRDLFQIDPDTGRSLITDEDTPTAIARRNMTMDPNHVPGSEPNFAAYRTQSRRGPIAREFFKHFAEEHAAHTENAWRDRFRKFLLAYGIDDYISYYEAEKAQNREPEPMKNLTNRPKRPGVPTPGNYNSAAKRAR
[1]; parent: est. 0.68
  response: 0.47

B5: GST-SANT, P11938 S392A; H393A; Y394A (protein)
chain: KASFTDEEDEFILDVVRKNPTRRTTHTLYDEIAAAVPNHTGNSIRHRFRVY
[1]
  ratio to parent: 0.21

B6: GST-SANT, P11938 H398A; T399A; G400A (protein)
chain: KASFTDEEDEFILDVVRKNPTRRTTHTLYDEISHYVPNAAANSIRHRFRVY
[1]
  ratio to parent: 0.62

B7: TeloA telomeric sequence (dsDNA)
DNA 1: GCCGCACACCCACACACCAGTG
DNA 2: CACTGGTGTGTGGGTGTGCGGC
[2]
  binding result: binds
[3]
  binding result: binds

B8: TEF2 promoter Rap1 site (dsDNA)
DNA 1: TGTTGCACCCACACATTTA
DNA 2: TAAATGTGTGGGTGCAACA
[4]
  binding result: binds
[5]
  binding result: binds

B9: GAC1 NRTS promoter (dsDNA)
DNA 1: AATAATACATCACATTAACTGTCTATAAGAGGCTGGTAC
DNA 2: GTACCAGCCTCTTATAGACAGTTAATGTGATGTATTATT
[6]
  dissociation constant (Kd): ~10 fold vs TEF2 (printed: Kd approximately 10-fold lower than in B; titration range suggests affinity is meant)
[7]
  dissociation constant (Kd): ~10 fold vs TEF2 (printed: Kd approximately 10-fold lower than in B; titration range suggests affinity is meant)
